Results reported in patent US12257281B2, “Hydrophilic antibody-drug conjugates” (priority 2014, dated 2025).
Square brackets hold non-standard residues; d marks the D form. Peptide text beside a SMILES is read from it. * marks the point of attachment. Dolaproine = CO[C@@H]([C@@H]1CCCN1)[C@@H](C)C(=O)O; Hexanoyl(6-maleimido) = O=C1C=CC(=O)N1CCCCCC(=O)*; Dil = CC[C@H](C)[C@H](NC)[C@@H](CC(=O)O)OC; NMeV = CN[C@H](C(=O)O)C(C)C

B1: h1F6-me-vc-PABC-MMAF (conjugate, chains of the INN, looked up)
VH: QVQLVQSGAEVKKPGASVKVSCKASGYTFTNYGMNWVRQAPGQGLKWMGWINTYTGEPTYADAFKGRVTMTRDTSISTAYMELSRLRSDDTAVYYCARDYGDYGMDYWGQGTTVTVSS
VL: DIVMTQSPDSLAVSLGERATINCRASKSVSTSGYSFMHWYQQKPGQPPKLLIYLASNLESGVPDRFSGSGSGTDFTLTISSLQAEDVAVYYCQHSREVPWTFGQGTKVEIK
modifications: me-vc-PABC-MMAF drug conjugate

Experiments:
[1] = Hydrophobic Interaction Chromatography (HIC) of 8-loaded ADCs; assay type: physicochemical; details: for HIC RT (min) h1F6 8-loads: 8-loaded antibody drug conjugates with antibody h1F6, Table 2; for HIC retention time: ADCs containing the drug linkers as 8 loads, Table 1
Method: The hydrophilicity index is measured as the retention time of a conjugate to that of the corresponding unconjugated targeting agent (alone) under high performance liquid chromatography (HPLC) conditions, as further described herein. […] If a different hydrophobic interaction column and/or method is used, it can be calibrated using conjugates from Tables 2 as references to determine reference conjugate mobilities (elution times) on the selected column and/or method. The determined reference mobilities on the selected hydrophobic interaction column and/or method can then be used to calculate a hydrophilicity index of a test article (as would be determined following Example 3). For example, an auristatin T-Glu-Dpr-MA, an me-MMAF and an mc-vc-PABC-MMAE drug linkers can be used to form conjugates to use as references. In another example, an auristatin T-Glu-Dpr-MA-h1F6 ADC, an h1F6-mc-MMAF and an h1F6-mc-vc-PABC-MMAE ADC can be used as references.
Analysis of the ADCs was performed using Hydrophobic Interaction Chromatography (HIC). HIC is performed by running a linear gradient from 0-100% Mobile Phase B (MPB) where Mobile Phase A (MPA) consists of 1.5 M ammonium sulfate, 25 mM potassium phosphate, pH 7.0, and MPB consists of 75% 25 mM potassium phosphate, pH 7.0, 25% isopropanol. Separation was achieved using a Tosoh t-Butyl column (TSK-Gel Butyl-NPR 4.6×35 mm, PN: 14947) heated to 25° C. Test articles were prepared by diluting 70 μg of ADC into MPA such that the total salt concentration is greater than or equal to 1.0 M ammonium sulfate at a total volume of 100 μL. Samples were injected at 90 μL and eluted using a 12 minute gradient. Monitoring at λ=280 nm.

786-O tumors = assay: Single dose mouse xenograft studies, h1F6 ADCs; assay type: in vivo; details: FIG. 6
Text: 786-O cells were obtained from American Type Culture Collection (ATCC, Manassas, VA) and propagated in culture conditions recommended by ATCC. To establish 786-O tumors, 5×10^6 cells were implanted into the right flank of athymic nu/nu female donor mice (Harlan, Indianapolis, IN). When donor tumors were approximately 500 mm^3, mice were euthanized and tumors were aseptically excised and ˜0.5×0.5 mm fragments were loaded into a sterilized 13-gauge trocar for implantation into nu/nu mice. When tumors reached ˜100 mm^3, mice were randomly allocated to treatment groups.
Experimental groups were treated via intraperitoneal injection with compounds at the dose and schedule indicated or alternatively left untreated. Tumors were measured periodically and volumes were calculated using the formula V=((L×W^2)/2). Animals were euthanized when tumors reached the volume of 1000 mm^3 or at the end of the study, whichever came first.
Tumor quadrupling times were chosen as time to endpoint (TTE), which was determined by using the non-liner regression analysis for exponential growth of each individual tumor growth data sets from each experimental animal. The median tumor quadrupling time was calculated based on the tumor volume at the beginning of treatment.
Statistical analysis was conducted using Prism (GraphPad) software for Windows. […]

Molecule | HIC RT (min) h1F6 8-loads [1] [min] | HIC retention time [1] [min] | activity of 8-loaded versus 4-loaded ADC (786-O tumors)
maleimidocaproyl-valine-citrulline-p-aminobenzyl-carbamoyl MMAF [mc-vc-PABC-MMAF] | 8.2 | 8.2 | –
maleimidocaproyl-valine-citrulline-p-aminobenzyl-carbamoyl MMAE [mc-vc-PABC-MMAE] | 9.8 | 9.8 | –
CC[C@H](C)[C@@H]([C@@H](CC(=O)N1CCC[C@H]1[C@H](OC)[C@@H](C)C(=O)N[C@@H](Cc1ccccc1)C(=O)O)OC)N(C)C(=O)[C@@H](NC(=O)[C@H](C(C)C)N(C)C(=O)CCCCCN1C(=O)C=CC1=O)C(C)C [mc-MMAF, maleimidocaproyl MMAF] ({Hexanoyl(6-maleimido)}-[NMeV]V[Dil][Dolaproine]F-OH) | 7.0 | 7.0 | –
B1 | – | – | 4-loaded ADC gave better activity than the 8-loaded ADC
